In PMC9299759, “FBXW24 controls female meiotic prophase progression by regulating SYCP3 ubiquitination” (Clinical and Translational Medicine, 2022):

Target: T1, FBXW24‐EGFP‐Strep II protein, purified from Sf9 (mouse, UniProt E9PXM9 1-466)
T1 construct: FBXW24 (F-box and WD-40 domain protein 24), mouse, gene ID 382106; also called FBXW24‐StrepII; in vitro purified FBXW24; source: Sf9 (Bac-to-bac baculovirus), purified (Ni-NTA); not shown: EGFP, C-terminal, kept; Strep II, C-terminal, kept
T1 sequence (looked up): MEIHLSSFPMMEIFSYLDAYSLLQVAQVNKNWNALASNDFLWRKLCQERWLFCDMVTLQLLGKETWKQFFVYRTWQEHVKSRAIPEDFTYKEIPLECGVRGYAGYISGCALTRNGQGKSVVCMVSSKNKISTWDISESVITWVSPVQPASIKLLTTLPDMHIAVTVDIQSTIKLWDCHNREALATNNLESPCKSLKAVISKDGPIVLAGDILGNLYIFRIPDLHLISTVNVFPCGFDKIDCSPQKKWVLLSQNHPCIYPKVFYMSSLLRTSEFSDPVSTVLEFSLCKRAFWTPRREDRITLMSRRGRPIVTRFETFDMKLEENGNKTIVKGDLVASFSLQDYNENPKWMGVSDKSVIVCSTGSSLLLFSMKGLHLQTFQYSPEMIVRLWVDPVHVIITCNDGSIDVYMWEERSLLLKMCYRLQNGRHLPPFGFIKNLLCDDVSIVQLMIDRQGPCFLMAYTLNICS
Assay: co-IP; co-IP between in vitro purified proteins; 1 μg SYCP3‐Flag protein and/or FBXW24‐StrepII protein in each reaction
Settings: both partners purified

B1: SYCP3‐TagRFP‐Flag protein, purified from Sf9 (natural protein, mouse, UniProt P70281 1-254, looked up)
chain: MLRGCGDSDSSPEPLSKHLKMVPGGRKHSGKSGKPPLVDQPKKAFDFEKDDKDLSGSEEDVADEKAPVIDKHGKKRSAGIIEDVGGEVQNMLEKFGADINKALLAKRKRIEMYTKASFKASNQKIEQIWKTQQEEIQKLNNEYSQQFMNVLQQWELDIQKFEEQGEKLSNLFRQQQKIFQQSRIVQSQRMFAMKQIHEQFIKSLEDVEKNNDNLFTGTQSELKKEMAMLQKKVMMETQQQEMANVRKSLQSMLF
notes: SYCP3, synaptonemal complex lateral element protein; The purified protein ran as several bands, and the upper bands carried ubiquitin; also called SYCP3‐Flag; in vitro purified SYCP3; source: Sf9 (Bac-to-bac baculovirus), purified (Ni-NTA); not shown: TagRFP, C-terminal, kept; Flag, C-terminal, kept
binding result: binds
